pKd: −log10 of the molar value.
Experiments:
[1] = biological target: human Rad18 (Rad18 1–495) (human) (UniProt Q9NS91); assay: SEC-MALS
GST-SAP (Homo sapiens) = GST-SAP (Homo sapiens) (UniProt Q9NS91); assay: SPR
GST-SAP (Homo sapiens), sequence (Q9NS91 whole entry): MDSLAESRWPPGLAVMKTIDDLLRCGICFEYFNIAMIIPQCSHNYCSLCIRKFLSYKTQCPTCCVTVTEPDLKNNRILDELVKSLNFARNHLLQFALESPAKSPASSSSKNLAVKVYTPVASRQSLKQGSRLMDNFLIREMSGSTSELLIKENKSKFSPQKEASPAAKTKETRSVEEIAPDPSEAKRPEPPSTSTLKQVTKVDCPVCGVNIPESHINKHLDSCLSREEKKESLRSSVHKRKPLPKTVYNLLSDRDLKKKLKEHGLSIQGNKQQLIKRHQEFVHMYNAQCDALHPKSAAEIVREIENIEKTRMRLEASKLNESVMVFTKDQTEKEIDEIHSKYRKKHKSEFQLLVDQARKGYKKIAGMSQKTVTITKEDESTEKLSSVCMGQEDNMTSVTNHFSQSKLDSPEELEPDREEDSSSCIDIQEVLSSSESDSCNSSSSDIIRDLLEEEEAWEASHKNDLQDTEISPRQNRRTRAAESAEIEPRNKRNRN

human Rad18 (Rad18 1–495), sequence (Q9NS91 whole entry): as above

stoichiometry N [1] | Substance | pKd (GST-SAP (Homo sapiens))
2 | human Rad18 (Rad18 1–495) (from UniProt Q9NS91 1-495) (natural protein) | –
– | TTTTTTTTTTTTTTTTTTTTTTTTTTTTTTTTTTTTTTTT [40T] | 5.96
– | 40-mer dsDNA | 5.25

— article PMC2034485
